Assay results as given in patent US20260042815A1, “UNIVERSAL T CELLS AND COMPOSITIONS AND METHODS OF USE THEREOF” (The Trustees of the University of Pennsylvania, priority 2022, published 2026).

Test system: stress ligands (MICA, MICB, ULBP 1-6) on K562 target cells
Experiment: Stress ligand blocking on K562 target cells with soluble NKG2D protein
Format: cell-based, human
Conditions: parental K562 and K878 targets, NK cells from two donors
Text: Soluble NKG2D protein was employed to block stress ligands (MICA, MICB, ULBP 1-6) on K562 target cells, which interfered with NKG2D mediated recognition of target cells.

B1: NKG2D protein: Soluble NKG2D protein employed to block stress ligands (MICA, MICB, ULBP 1-6) on K562 target cells (protein, UniProt P26718 73-216, looked up)
extracellular domain: IWSAVFLNSLFNQEVQIPLTESYCGPCPKNWICYKNNCYQFFDESKNWYESQASCMSQNASLLKVYSKEDQDLLKLVKSYHWMGLVHIPTNGSWQWEDGSILSPNLLTIIEMQKGDCALYASSFKGYIENCSTPNTYICMQRTV
modifications: extracellular domain
Effect on target cell recognition by NK cells: minimal efficacy
